Test results: the supplement of paper PMC7877785
± gives the uncertainty stated by the source.

Assay: self-splicing fitness, log relative to wild type (ln ratio); higher = more splicing; Tetrahymena group I intron in knt gene, E. coli kanamycin selection, DiMSum; sequences stand for … in CUCUCU…GGAGGGAAAAGUUAUCAGGCAUGCACCUGGUAGCUAGUCUUUAAACCAAUAGAUUGCAUCGGUUUAAAAGGCAAGACCGUCAAAUUGCGGGAAAGGGGUCAACAGCCGUUCAGUACCAAGUCUCAGGGGAAACUUUGAGAUGGCCUUGCAAAGGGUAUGGUAAUAAGCUGACGGACAUGGUCCUAACCACGCAGCCAAGUCCUAAGUCAACAGAUCUUCUGUUGAUAUGGAUGCAGUUCACAGACUAAAUGUCGGUCGGGGAAGAUGUAUUCUUCUCAUAAGAUAUAGUCGGACCUCUCCUUAAUGGGAGCUAGCGGAUGAAGUGAUGCAACACUGGAGCCGCUGGGAACUAAUUUGUAUGCGAAAGUAUAUUGAUUAGUUUUGGAGUACUCGUGGUCG
In short: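 Colonies from six replicate transformations of E. coli BL21(DE3) were pooled and amplicon-sequenced on an Illumina HiSeq 2500. The library placed an intron with all eight P1ex-region nucleotides randomised inside the knt kanamycin-resistance gene on pET-22b(+), and cells grew overnight at 37°C or 30°C on LB agar with or without 25 μg/mL kanamycin (plus 100 μg/mL carbenicillin, 50 μM IPTG, 0.2% rhamnose). Fitness is the DiMSum error-weighted combination of wild-type-normalised replicate fold changes, kanamycin versus none.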

Sequence | self-splicing fitness (ln) (30 °C) | self-splicing fitness (ln) (37 °C)
CACCAGCAAUAUUACGCCUG | -1.11 ± 0.076 | -0.247 ± 0.097
CACCAGCAAUAUUACGCUCU | -3.85 ± 0.2 | -1.48 ± 0.15
CACCAGCAAUAUUACGGACG | -0.37 ± 0.058 | 0.374 ± 0.08
CACCAGCAAUAUUACGGAGA | -1.66 ± 0.11 | -2.16 ± 0.14
CACCAGCAAUAUUACGGCAC | -2.38 ± 0.12 | -1.09 ± 0.11
CACCAGCAAUAUUACGGUCC | -0.606 ± 0.074 | -0.037 ± 0.11
CACCAGCAAUAUUACGGUUU | -0.79 ± 0.045 | -0.0932 ± 0.065
CACCAGCAAUAUUACGUCAG | -0.342 ± 0.051 | 0.0517 ± 0.067
CACCAGCAAUAUUACGUGAU | -3.47 ± 0.12 | -3 ± 0.19
CACCAGCAAUAUUACGUUCU | -3.76 ± 0.17 | -2.65 ± 0.14
CACGAGCAAUAUUACGAAAG | -3.34 ± 0.3 | -2.22 ± 0.36
CACGAGCAAUAUUACGAAGA | -2.89 ± 0.22 | -3.38 ± 0.27
CACGAGCAAUAUUACGACGA | -3.66 ± 0.48 | -2.24 ± 0.26
CACGAGCAAUAUUACGAGAU | -4.36 ± 0.32 | -3.09 ± 0.26
CACGAGCAAUAUUACGAGCA | -4.24 ± 0.39 | -3.46 ± 0.4
CACGAGCAAUAUUACGAGGU | -4.07 ± 0.28 | -3.23 ± 0.28
CACGAGCAAUAUUACGCCCU | -2.92 ± 0.3 | –
CACGAGCAAUAUUACGCGAG | -1.52 ± 0.17 | -2.5 ± 0.26
CACGAGCAAUAUUACGCGUU | -4.28 ± 0.47 | -2.1 ± 0.18
CACGAGCAAUAUUACGCUGU | -3.55 ± 0.18 | -3.31 ± 0.18
CACGAGCAAUAUUACGGAAA | -2.33 ± 0.22 | -1.8 ± 0.19
CACGAGCAAUAUUACGGCCU | -4.34 ± 0.36 | -3.06 ± 0.3
CACGAGCAAUAUUACGGCGG | -2.37 ± 0.092 | -1.14 ± 0.11
CACGAGCAAUAUUACGGGCC | -3.08 ± 0.38 | -2.24 ± 0.31
CACGAGCAAUAUUACGGGGC | -3.02 ± 0.14 | -2.42 ± 0.19
CACGAGCAAUAUUACGGGGU | -4.09 ± 0.23 | -2.67 ± 0.16

Sequence | self-splicing fitness (ln) (30 °C) | self-splicing fitness (ln) (37 °C)
CACGAGCAAUAUUACGGGUC | -4.31 ± 0.26 | -1.99 ± 0.15
CACGAGCAAUAUUACGGUAC | -2.69 ± 0.21 | -2.81 ± 0.3
CACGAGCAAUAUUACGUACG | -2.38 ± 0.14 | -0.807 ± 0.15
CACGAGCAAUAUUACGUCCU | -3.93 ± 0.3 | -2.81 ± 0.29
CACGAGCAAUAUUACGUGAA | -3.63 ± 0.14 | -2.49 ± 0.12
CACGAGCAAUAUUACGUUAG | -2.94 ± 0.16 | -2.64 ± 0.18
CACGAGCAAUAUUACGUUCG | -4.18 ± 0.29 | -2.75 ± 0.21
CACUAGCAAUAUUACGAACA | -3.04 ± 0.42 | -2.83 ± 0.3
CACUAGCAAUAUUACGAAUC | -3.91 ± 0.19 | -2.58 ± 0.22
CACUAGCAAUAUUACGAGGU | -5.22 ± 0.45 | -2.6 ± 0.23
CACUAGCAAUAUUACGAGUU | -1.83 ± 0.085 | -0.633 ± 0.093
CACUAGCAAUAUUACGAUAG | -0.974 ± 0.1 | -0.493 ± 0.11
CACUAGCAAUAUUACGAUCC | -2.56 ± 0.33 | -1.91 ± 0.34
CACUAGCAAUAUUACGAUGC | -3.76 ± 0.18 | -3.05 ± 0.19
CACUAGCAAUAUUACGAUGG | -0.786 ± 0.062 | -0.324 ± 0.084
CACUAGCAAUAUUACGCAGC | -3.17 ± 0.31 | -2.28 ± 0.37
CACUAGCAAUAUUACGCCAU | -3.88 ± 0.44 | -2.45 ± 0.28
CACUAGCAAUAUUACGCCGU | -1.95 ± 0.35 | -1.18 ± 0.35
CACUAGCAAUAUUACGCCUA | -3.31 ± 0.19 | -2.36 ± 0.16
CACUAGCAAUAUUACGCCUC | – | -1.72 ± 0.23
CACUAGCAAUAUUACGCGUA | -1.84 ± 0.093 | -0.0161 ± 0.075
CACUAGCAAUAUUACGCGUC | -1.84 ± 0.1 | -2.75 ± 0.21
CACUAGCAAUAUUACGCUUA | -2.65 ± 0.21 | -1.2 ± 0.13
CACUAGCAAUAUUACGGCUA | -3.46 ± 0.47 | -2.1 ± 0.32
CACUAGCAAUAUUACGGUCC | -2.4 ± 0.12 | -1.29 ± 0.15
CACUAGCAAUAUUACGUAAG | 0.264 ± 0.061 | 0.0438 ± 0.073

Sequence | self-splicing fitness (ln) (30 °C) | self-splicing fitness (ln) (37 °C)
CACUAGCAAUAUUACGUAGG | -1.04 ± 0.1 | -0.696 ± 0.14
CACUAGCAAUAUUACGUCAG | -0.817 ± 0.062 | 0.566 ± 0.071
CACUAGCAAUAUUACGUCGC | -3.66 ± 0.24 | -2.66 ± 0.27
CACUAGCAAUAUUACGUGGC | -3.89 ± 0.23 | -3.28 ± 0.2
CACUAGCAAUAUUACGUUAC | -3.4 ± 0.14 | -2.77 ± 0.16
CAGAAGCAAUAUUACGACUA | 0.00435 ± 0.063 | 0.187 ± 0.081
CAGAAGCAAUAUUACGAUGA | -2.08 ± 0.12 | -0.735 ± 0.086
CAGAAGCAAUAUUACGAUUU | -2.06 ± 0.096 | -1.16 ± 0.11
CAGAAGCAAUAUUACGCAAA | -3.57 ± 0.35 | -1.81 ± 0.26
CAGAAGCAAUAUUACGCCAC | – | -0.904 ± 0.4
CAGAAGCAAUAUUACGCCAU | -2.66 ± 0.14 | -2.77 ± 0.18
CAGAAGCAAUAUUACGCCGA | -3.49 ± 0.41 | -2.75 ± 0.33
CAGAAGCAAUAUUACGCGAC | – | -2.94 ± 0.32
CAGAAGCAAUAUUACGCGAG | -2.62 ± 0.097 | -1.49 ± 0.096
CAGAAGCAAUAUUACGGAGC | -3.14 ± 0.34 | -2.32 ± 0.31
CAGAAGCAAUAUUACGGAUG | -2.75 ± 0.17 | -2.6 ± 0.21
CAGAAGCAAUAUUACGGCCG | -0.0187 ± 0.082 | -0.102 ± 0.14
CAGAAGCAAUAUUACGGUCU | -1.52 ± 0.064 | -1.09 ± 0.082
CAGAAGCAAUAUUACGUACA | -2.14 ± 0.11 | -0.932 ± 0.12
CAGAAGCAAUAUUACGUAUU | -3.79 ± 0.23 | -2.28 ± 0.15
CAGAAGCAAUAUUACGUCGC | -3.55 ± 0.23 | -2.76 ± 0.28
CAGAAGCAAUAUUACGUGCA | -2.49 ± 0.14 | -1.75 ± 0.14
CAGCAGCAAUAUUACGAACU | -2.68 ± 0.16 | -2.11 ± 0.14
CAGCAGCAAUAUUACGACGU | -0.896 ± 0.076 | -0.529 ± 0.079
CAGCAGCAAUAUUACGAGCU | -3.07 ± 0.21 | -1.76 ± 0.2
